According to publication PMC8602292, “Acyl carrier protein promotes MukBEF action in Escherichia coli chromosome organization-segregation” (Nature Communications, 2021):
Values belong to the binder of their own block, whether it stands above or below them.

Target: T1, MukB (wild type, MukB-His) (Escherichia coli, UniProt P22523 1-1486)
T1 construct: MukB, the SMC protein of Escherichia coli MukBEF; wild type; The end of the tag is read from the printed name 'MukB-His'; The same construct was used with co-purified AcpP or depleted of AcpP by an extended salt gradient on heparin; also called WT MukB; AcpP-depleted MukB; source: E. coli C3013I (NEB), pET vector, purified (TALON, HiTrap Heparin, Superdex 200); not shown: His tag, C-terminal, kept
T1 sequence (looked up): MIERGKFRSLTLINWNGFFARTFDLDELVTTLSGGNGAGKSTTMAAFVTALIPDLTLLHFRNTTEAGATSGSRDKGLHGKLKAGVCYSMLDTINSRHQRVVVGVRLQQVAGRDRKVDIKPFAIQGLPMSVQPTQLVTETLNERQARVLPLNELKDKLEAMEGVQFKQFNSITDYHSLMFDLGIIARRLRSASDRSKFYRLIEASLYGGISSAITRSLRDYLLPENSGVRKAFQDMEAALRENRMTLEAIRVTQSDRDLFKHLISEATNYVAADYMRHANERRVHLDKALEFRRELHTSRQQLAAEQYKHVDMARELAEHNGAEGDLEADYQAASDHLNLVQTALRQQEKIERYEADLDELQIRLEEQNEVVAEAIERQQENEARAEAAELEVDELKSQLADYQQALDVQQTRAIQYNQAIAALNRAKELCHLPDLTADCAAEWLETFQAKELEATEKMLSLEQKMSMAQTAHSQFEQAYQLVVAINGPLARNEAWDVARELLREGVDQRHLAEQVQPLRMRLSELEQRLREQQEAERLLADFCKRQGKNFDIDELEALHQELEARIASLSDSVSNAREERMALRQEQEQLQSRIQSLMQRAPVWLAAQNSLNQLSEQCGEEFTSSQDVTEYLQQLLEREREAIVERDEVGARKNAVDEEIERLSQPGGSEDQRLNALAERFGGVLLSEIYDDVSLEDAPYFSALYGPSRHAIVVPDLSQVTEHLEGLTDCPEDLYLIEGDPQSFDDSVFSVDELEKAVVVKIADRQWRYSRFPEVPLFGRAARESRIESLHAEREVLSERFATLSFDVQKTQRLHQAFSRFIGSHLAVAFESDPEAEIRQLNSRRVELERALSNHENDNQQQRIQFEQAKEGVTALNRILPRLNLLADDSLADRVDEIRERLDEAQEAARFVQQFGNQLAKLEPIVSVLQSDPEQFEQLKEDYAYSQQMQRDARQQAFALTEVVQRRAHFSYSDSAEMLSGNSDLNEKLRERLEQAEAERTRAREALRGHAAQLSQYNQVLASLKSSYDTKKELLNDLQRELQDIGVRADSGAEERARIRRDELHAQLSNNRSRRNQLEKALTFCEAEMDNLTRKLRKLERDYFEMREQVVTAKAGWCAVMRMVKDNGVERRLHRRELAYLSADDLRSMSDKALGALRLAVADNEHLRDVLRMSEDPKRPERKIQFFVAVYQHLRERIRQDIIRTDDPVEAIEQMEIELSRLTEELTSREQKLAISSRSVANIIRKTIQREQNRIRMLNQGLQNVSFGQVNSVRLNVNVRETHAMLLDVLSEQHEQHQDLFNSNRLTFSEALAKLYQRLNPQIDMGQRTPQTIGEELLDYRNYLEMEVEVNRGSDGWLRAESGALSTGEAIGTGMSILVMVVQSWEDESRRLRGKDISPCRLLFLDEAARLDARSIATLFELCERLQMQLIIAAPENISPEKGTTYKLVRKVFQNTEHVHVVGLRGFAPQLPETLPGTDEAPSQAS
Assay: native MS; mixtures of MukB, MukE, MukF and AcpP at various concentrations of MukB; 200 mM ammonium acetate pH 8.0
Conditions: both partners purified

binding result: binds
B1: MukF (His-MukF) (natural protein, Escherichia coli, UniProt P60293 1-440, looked up)
chain: MSEFSQTVPELVAWARKNDFSISLPVDRLSFLLAVATLNGERLDGEMSEGELVDAFRHVSDAFEQTSETIGVRANNAINDMVRQRLLNRFTSEQAEGNAIYRLTPLGIGITDYYIRQREFSTLRLSMQLSIVAGELKRAADAAEEGGDEFHWHRNVYAPLKYSVAEIFDSIDLTQRLMDEQQQQVKDDIAQLLNKDWRAAISSCELLLSETSGTLRELQDTLEAAGDKLQANLLRIQDATMTHDDLHFVDRLVFDLQSKLDRIISWGQQSIDLWIGYDRHVHKFIRTAIDMDKNRVFAQRLRQSVQTYFDEPWALTYANADRLLDMRDEEMALRDEEVTGELPEDLEYEEFNEIREQLAAIIEEQLAVYKTRQVPLDLGLVVREYLSQYPRARHFDVARIVIDQAVRLGVAQADFTGLPAKWQPINDYGAKVQAHVIDKY
notes: MukF, the kleisin of Escherichia coli MukBEF; The end of the tag is read from the printed name 'His-MukF'; also called kleisin MukF; source: E. coli C3013I (NEB), pET vector, purified (TALON, HiTrap DEAE FF, Superdex 200)

binding result: binds
B2: MukE (MukE-His) (natural protein, Escherichia coli, UniProt P22524 1-234, looked up)
chain: MSSTNIEQVMPVKLAQALANPLFPALDSALRSGRHIGLDELDNHAFLMDFQEYLEEFYARYNVELIRAPEGFFYLRPRSTTLIPRSVLSELDMMVGKILCYLYLSPERLANEGIFTQQELYDELLTLADEAKLLKLVNNRSTGSDVDRQKLQEKVRSSLNRLRRLGMVWFMGHDSSKFRITESVFRFGADVRAGDDPREAQRRLIRDGEAMPIENHLQLNDETEENQPDSGEEE
notes: MukE, the KITE protein of Escherichia coli MukBEF; The end of the tag is read from the printed name 'MukE-His'; also called KITE protein MukE; source: E. coli C3013I (NEB), pET vector, purified (TALON, HiTrap DEAE FF, Superdex 200)
